This data set deals with the molecule itself. As to the kind of experiment: native-PAGE/immunoblot of conditioned media of transfected 293T cells; self-association (homodimer). For orientation: Immunoblotting shows a protein as a band on a membrane.

B1: S100A1 with C-terminal fp2a-cleaved linker tail (2A tail), as cleaved from lead dual-gene and triple-gene constructs (other)
chain: MGSELETAMETLINVFHAHSGKEGDKYKLSKKELKELLQTELSGFLDAQKDVDAVDKVMKELDENGDGEVDFQEYVVLVAALTVACNNFFWENSRAKRAPVKQGSGATNFSLLKQAGDVEENPG
notes: Homodimer seen by native PAGE and immunoblot; also called S100A1 with 2A tail
For B1, the binding result is “binds”.
